# ChEMBL document CHEMBL2074524, “Delineating the contribution of secretory transporters in the efflux of etoposide using Madin-Darby canine kidney (MDCK) cells overexpressing P-glycoprotein (Pgp), multidrug resistance-associated protein (MRP1), and canalicular multispecific organic anion transporter (cMOAT)” (Drug Metab Dispos, 2002)
# B1: ATP-binding cassette sub-family C member 2 (Homo sapiens) (protein)
# chain: MLEKFCNSTFWNSSFLDSPEADLPLCFEQTVLVWIPLGYLWLLAPWQLLHVYKSRTKRSSTTKLYLAKQVFVGFLLILAAIELALVLTEDSGQATVPAVRYTNPSLYLGTWLLVLLIQYSRQWCVQKNSWFLSLFWILSILCGTFQFQTLIRTLLQGDNSNLAYSCLFFISYGFQILILIFSAFSENNESSNNPSSIASFLSSITYSWYDSIILKGYKRPLTLEDVWEVDEEMKTKTLVSKFETHMKRELQKARRALQRRQEKSSQQNSGARLPGLNKNQSQSQDALVLEDVEKKKKKSGTKKDVPKSWLMKALFKTFYMVLLKSFLLKLVNDIFTFVSPQLLKLLISFASDRDTYLWIGYLCAILLFTAALIQSFCLQCYFQLCFKLGVKVRTAIMASVYKKALTLSNLARKEYTVGETVNLMSVDAQKLMDVTNFMHMLWSSVLQIVLSIFFLWRELGPSVLAGVGVMVLVIPINAILSTKSKTIQVKNMKNKDKRLKIMNEILSGIKILKYFAWEPSFRDQVQNLRKKELKNLLAFSQLQCVVIFVFQLTPVLVSVVTFSVYVLVDSNNILDAQKAFTSITLFNILRFPLSMLPMMISSMLQASVSTERLEKYLGGDDLDTSAIRHDCNFDKAMQFSEASFTWEHDSEATVRDVNLDIMAGQLVAVIGPVGSGKSSLISAMLGEMENVHGHITIKGTTAYVPQQSWIQNGTIKDNILFGTEFNEKRYQQVLEACALLPDLEMLPGGDLAEIGEKGINLSGGQKQRISLARATYQNLDIYLLDDPLSAVDAHVGKHIFNKVLGPNGLLKGKTRLLVTHSMHFLPQVDEIVVLGNGTIVEKGSYSALLAKKGEFAKNLKTFLRHTGPEEEATVHDGSEEEDDDYGLISSVEEIPEDAASITMRRENSFRRTLSRSSRSNGRHLKSLRNSLKTRNVNSLKEDEELVKGQKLIKKEFIETGKVKFSIYLEYLQAIGLFSIFFIILAFVMNSVAFIGSNLWLSAWTSDSKIFNSTDYPASQRDMRVGVYGALGLAQGIFVFIAHFWSAFGFVHASNILHKQLLNNILRAPMRFFDTTPTGRIVNRFAGDISTVDDTLPQSLRSWITCFLGIISTLVMICMATPVFTIIVIPLGIIYVSVQMFYVSTSRQLRRLDSVTRSPIYSHFSETVSGLPVIRAFEHQQRFLKHNEVRIDTNQKCVFSWITSNRWLAIRLELVGNLTVFFSALMMVIYRDTLSGDTVGFVLSNALNITQTLNWLVRMTSEIETNIVAVERITEYTKVENEAPWVTDKRPPPDWPSKGKIQFNNYQVRYRPELDLVLRGITCDIGSMEKIGVVGRTGAGKSSLTNCLFRILEAAGGQIIIDGVDIASIGLHDLREKLTIIPQDPILFSGSLRMNLDPFNNYSDEEIWKALELAHLKSFVASLQLGLSHEVTEAGGNLSIGQRQLLCLGRALLRKSKILVLDEATAAVDLETDNLIQTTIQNEFAHCTVITIAHRLHTIMDSDKVMVLDNGKIIECGSPEELLQIPGPFYFMAKEAGIENVNSTKF
# What was measured:
# [1] = target: Multidrug resistance-associated protein 1 (Homo sapiens, UniProt P33527); test: TP_TRANSPORTER: transepithelial transport (basal to apical) in MRP1-expressing MDCKII cells; format: functional, cell-based; details: dog, mdck-ii
# Multidrug resistance-associated protein 1, sequence (P33527 whole entry): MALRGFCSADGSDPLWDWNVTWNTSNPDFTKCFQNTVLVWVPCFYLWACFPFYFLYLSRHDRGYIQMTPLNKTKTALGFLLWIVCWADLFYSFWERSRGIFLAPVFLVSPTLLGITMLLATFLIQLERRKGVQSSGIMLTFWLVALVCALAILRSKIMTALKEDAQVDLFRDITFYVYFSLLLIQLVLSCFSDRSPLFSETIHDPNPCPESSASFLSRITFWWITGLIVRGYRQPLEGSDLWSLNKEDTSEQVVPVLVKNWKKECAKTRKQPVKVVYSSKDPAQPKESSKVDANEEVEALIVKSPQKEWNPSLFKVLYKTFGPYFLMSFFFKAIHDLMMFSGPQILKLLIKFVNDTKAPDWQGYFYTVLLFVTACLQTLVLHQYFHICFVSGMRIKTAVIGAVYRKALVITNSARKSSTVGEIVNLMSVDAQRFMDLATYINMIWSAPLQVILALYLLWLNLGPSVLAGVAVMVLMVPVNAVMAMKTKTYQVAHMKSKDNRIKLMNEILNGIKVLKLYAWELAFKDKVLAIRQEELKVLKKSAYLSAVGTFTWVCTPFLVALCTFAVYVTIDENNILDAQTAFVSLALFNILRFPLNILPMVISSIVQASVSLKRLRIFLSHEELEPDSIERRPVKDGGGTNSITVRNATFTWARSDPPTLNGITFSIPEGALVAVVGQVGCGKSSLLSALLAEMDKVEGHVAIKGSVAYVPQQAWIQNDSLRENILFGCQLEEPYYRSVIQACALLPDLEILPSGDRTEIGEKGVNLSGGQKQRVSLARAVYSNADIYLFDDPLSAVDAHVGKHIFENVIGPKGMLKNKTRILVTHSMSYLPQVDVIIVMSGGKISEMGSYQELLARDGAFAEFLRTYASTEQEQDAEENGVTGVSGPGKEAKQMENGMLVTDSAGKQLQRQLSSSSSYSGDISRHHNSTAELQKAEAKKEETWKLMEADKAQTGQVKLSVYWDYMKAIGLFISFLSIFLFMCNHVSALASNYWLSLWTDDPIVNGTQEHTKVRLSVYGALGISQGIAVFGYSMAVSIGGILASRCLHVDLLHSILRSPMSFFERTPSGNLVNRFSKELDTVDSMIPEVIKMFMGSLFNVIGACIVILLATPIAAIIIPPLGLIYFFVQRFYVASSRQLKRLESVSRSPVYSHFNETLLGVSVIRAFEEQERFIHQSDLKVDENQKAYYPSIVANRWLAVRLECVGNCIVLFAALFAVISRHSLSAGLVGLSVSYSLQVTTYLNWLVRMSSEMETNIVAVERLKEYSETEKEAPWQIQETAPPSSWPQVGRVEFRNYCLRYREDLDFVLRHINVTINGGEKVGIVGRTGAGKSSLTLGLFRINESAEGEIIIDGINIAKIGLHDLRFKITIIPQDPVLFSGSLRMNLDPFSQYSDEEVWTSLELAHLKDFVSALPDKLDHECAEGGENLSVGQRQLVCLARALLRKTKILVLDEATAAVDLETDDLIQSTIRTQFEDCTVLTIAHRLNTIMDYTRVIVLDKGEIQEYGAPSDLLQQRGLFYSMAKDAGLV
# [2] = system: COc1cc([C@@H]2c3cc4c(cc3[C@@H](O[C@@H]3O[C@@H]5CO[C@@H](C)O[C@H]5[C@H](O)[C@H]3O)[C@H]3COC(=O)[C@H]23)OCO4)cc(OC)c1O; test: TP_TRANSPORTER: transepithelial transport (basal to apical) in MDR1-expressing MDCKII cells; format: functional, cell-based, MDCK-II
# [3] = substrate: COc1cc([C@@H]2c3cc4c(cc3[C@@H](O[C@@H]3O[C@@H]5CO[C@@H](C)O[C@H]5[C@H](O)[C@H]3O)[C@H]3COC(=O)[C@H]23)OCO4)cc(OC)c1O; test: TP_TRANSPORTER: transepithelial transport (basal to apical) in MRP2-expressing MDCKII cells; format: functional, cell-based, MDCK-II
molecule,measurement,setting,value
COc1cc([C@@H]2c3cc4c(cc3[C@@H](O[C@@H]3O[C@@H]5CO[C@@H](C)O[C@H]5[C@H](O)[C@H]3O)[C@H]3COC(=O)[C@H]23)OCO4)cc(OC)c1O [ETOPOSIDE],Activity,[1],is not a substrate [-]
ATP-dependent translocase ABCB1 (Homo sapiens),Km,[2],255 µM
B1,Km,[3],617 µM
